Drawing on article PMC10786891, “Massively parallel profiling of RNA-targeting CRISPR-Cas13d”, this text covers Kd for 31 molecules.

Positions count from the first letter of the chain named. Names and notes keep the numbering of the source.

T1: EsCas13d, nuclease-dead (Eubacterium siraeum, UniProt B0MS50, R295A;H300A;R849A;H854A)
T1 sequence: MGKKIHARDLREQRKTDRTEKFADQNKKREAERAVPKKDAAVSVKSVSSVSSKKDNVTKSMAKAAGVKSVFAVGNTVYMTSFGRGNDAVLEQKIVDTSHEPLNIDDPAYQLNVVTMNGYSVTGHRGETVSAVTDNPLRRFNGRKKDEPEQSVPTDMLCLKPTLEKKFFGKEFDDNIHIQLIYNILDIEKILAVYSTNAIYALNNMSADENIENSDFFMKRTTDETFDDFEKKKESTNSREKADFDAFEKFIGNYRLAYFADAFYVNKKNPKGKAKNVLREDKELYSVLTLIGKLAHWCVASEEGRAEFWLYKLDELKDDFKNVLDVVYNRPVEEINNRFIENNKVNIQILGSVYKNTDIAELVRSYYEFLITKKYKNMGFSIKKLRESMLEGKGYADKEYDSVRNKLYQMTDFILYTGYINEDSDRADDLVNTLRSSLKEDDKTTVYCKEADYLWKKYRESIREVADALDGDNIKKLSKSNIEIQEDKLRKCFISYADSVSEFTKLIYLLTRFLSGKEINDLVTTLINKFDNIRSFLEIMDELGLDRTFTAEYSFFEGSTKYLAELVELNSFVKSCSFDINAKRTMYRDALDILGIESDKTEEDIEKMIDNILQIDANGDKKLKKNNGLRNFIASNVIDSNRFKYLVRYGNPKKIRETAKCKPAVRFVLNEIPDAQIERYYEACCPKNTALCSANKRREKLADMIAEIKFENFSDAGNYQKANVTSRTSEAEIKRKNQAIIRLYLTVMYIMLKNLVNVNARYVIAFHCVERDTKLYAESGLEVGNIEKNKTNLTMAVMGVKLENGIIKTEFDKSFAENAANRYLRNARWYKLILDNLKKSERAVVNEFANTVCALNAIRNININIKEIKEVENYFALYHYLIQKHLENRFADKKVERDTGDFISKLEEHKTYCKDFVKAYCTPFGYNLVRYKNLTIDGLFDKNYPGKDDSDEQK

B1: target 1 A1U,G17U (mixed)
RNA 1: CACCCGUGCAAAAAUGCAGGGGUCUAAAACUGAGCGGAUAACCUCUCUAUGG
RNA 2: GGGAAUGGAUCCACAUCUACGAAUUCGUACCAUAUAGAGGUUAUCCGCUCUCCGAGAUCGGAAGAGCACACGU
B2: target 1 insC 3' of 22,insG 3' of 19 (mixed)
RNA 1: B1 RNA 1
RNA 2: GGGAAUGGAUCCACAUCUACGAAUUCGUACCCAUGAGAGAGGUUAUCCGCUCACCGAGAUCGGAAGAGCACACGU
B3: target 1 del14,del19 (mixed)
RNA 1: B1 RNA 1
RNA 2: GGGAAUGGAUCCACAUCUACGAAUUCGUACCAAGAGGGUUAUCCGCUCACCGAGAUCGGAAGAGCACACGU
B4: target 1 insA 3' of 22,insA 3' of 19 (mixed)
RNA 1: B1 RNA 1
RNA 2: B2 RNA 2 with C31A, G35A
B5: target 3 insA 3' of 3 (mixed)
RNA 1: CACCCGUGCAAAAUUGCAGGGGUCUAAAACGACCUGAAUAUUUCAGAUCAAA
RNA 2: GGGAAUGGAUCCACAUCUACGAAUUCGUUUUUGAUCUGAAAUAUUCAGGAUCUGCAGAUCGGAAGAGCACACGU
B6: target 3 insU 3' of 1 (mixed)
RNA 1: B5 RNA 1
RNA 2: B5 RNA 2 with A50U, U51C, C52U
B7: target 3 insA 3' of 22,insA 3' of 6 (mixed)
RNA 1: B5 RNA 1
RNA 2: GGGAAUGGAUCCACAUCUACGAAUUCGUUUAUUGAUCUGAAAUAUUCAAGGUCUGCAGAUCGGAAGAGCACACGU
B8: target 3 insC 3' of 5,insU 3' of 4 (mixed)
RNA 1: B5 RNA 1
RNA 2: GGGAAUGGAUCCACAUCUACGAAUUCGUUUUUGAUCUGAAAUAUUCACGUGUCUGCAGAUCGGAAGAGCACACGU
B9: target 3 G4A,C6A (mixed)
RNA 1: B5 RNA 1
RNA 2: GGGAAUGGAUCCACAUCUACGAAUUCGUUUUUGAUCUGAAAUAUUAAAGUCUGCAGAUCGGAAGAGCACACGU
B10: target 3 insU 3' of 1,insG 3' of 1 (mixed)
RNA 1: B5 RNA 1
RNA 2: B8 RNA 2 with C48G, G51C, C53G
B11: target 3 U7G,U8G (mixed)
RNA 1: B5 RNA 1
RNA 2: B9 RNA 2 with U44G, U45G, A46C, A48G
B12: target 3 U8C,A18G (mixed)
RNA 1: B5 RNA 1
RNA 2: B9 RNA 2 with A34G, U44C, A46C, A48G
B13: target 3 insC 3' of 8,insU 3' of 6 (mixed)
RNA 1: B5 RNA 1
RNA 2: B8 RNA 2 with U45C, C46U, A47C, C48U, G49A, U50G
B14: target 3 U2G,G14A (mixed)
RNA 1: B5 RNA 1
RNA 2: B9 RNA 2 with G38A, A46C, A48G, U50G
B15: target 3 insC 3' of 8,insG 3' of 8 (mixed)
RNA 1: B5 RNA 1
RNA 2: B8 RNA 2 with U45C, C46G, A47U, G49A, U50G
B16: target 3 insG 3' of 1 (mixed)
RNA 1: B5 RNA 1
RNA 2: B5 RNA 2 with A50U, U51C, C52G
B17: target 3 U8A,U22A (mixed)
RNA 1: B5 RNA 1
RNA 2: B9 RNA 2 with U30A, U44A, A46C, A48G
B18: target 3 insA 3' of 21,insG 3' of 5 (mixed)
RNA 1: B5 RNA 1
RNA 2: B7 RNA 2 with A31U, U32A, A49G
B19: target 3 A12C,U22A (mixed)
RNA 1: B5 RNA 1
RNA 2: B9 RNA 2 with U30A, A40C, A46C, A48G
B20: target 3 G3U,A18G (mixed)
RNA 1: B5 RNA 1
RNA 2: B9 RNA 2 with A34G, A46C, A48G, G49U
B21: target 3 insU 3' of 22,insU 3' of 1 (mixed)
RNA 1: B5 RNA 1
RNA 2: B7 RNA 2 with A31U, A49G, G51U, U52C, C53U
B22: target 3 insG 3' of 11,insU 3' of 3 (mixed)
RNA 1: B5 RNA 1
RNA 2: B8 RNA 2 with U42G, A43U, U44A, C46U, A47C, C48A, U50G, G51U
B23: target 3 insA 3' of 6,insC 3' of 2 (mixed)
RNA 1: B5 RNA 1
RNA 2: B8 RNA 2 with C48A, U50G, G51U, U52C
B24: target 3 insU 3' of 22,insC 3' of 2 (mixed)
RNA 1: B5 RNA 1
RNA 2: B7 RNA 2 with A31U, A49G, G51U, U52C
B25: target 3 insA 3' of 8,insC 3' of 7 (mixed)
RNA 1: B5 RNA 1
RNA 2: B8 RNA 2 with U45A, C46U, A47C, G49A, U50G
B26: target 3 G3A,C6U (mixed)
RNA 1: B5 RNA 1
RNA 2: B9 RNA 2 with A46U, A48G, G49A
B27: target 3 G4A,G19U (mixed)
RNA 1: B5 RNA 1
RNA 2: B9 RNA 2 with G33U, A46C
B28: target 3 insU 3' of 11,insA 3' of 7 (mixed)
RNA 1: B5 RNA 1
RNA 2: B8 RNA 2 with A43U, U44A, C46U, G49A, U50G
B29: target 3 insG 3' of 9,insC 3' of 4 (mixed)
RNA 1: B5 RNA 1
RNA 2: B8 RNA 2 with U44G, C46U, A47C, C48A, U50C
B30: target 3 insA 3' of 21,insU 3' of 6 (mixed)
RNA 1: B5 RNA 1
RNA 2: B7 RNA 2 with A31U, U32A, A48U
B31: target 3 A18G,U21A (mixed)
RNA 1: B5 RNA 1
RNA 2: B9 RNA 2 with U31A, A34G, A46C, A48G

For the series, the target named is T1, EsCas13d, nuclease-dead. Briefly: crRNA (strand 1, pre-loaded); Mg2+; 40 mM Tris-HCl pH 7.5, 150 mM NaCl, 6 mM MgCl2, 1 mM DTT, 0.1% Tween-20, 0.2 mg/ml BSA; 25 C; 10 min per concentration, then washed. The conditions noted are these: tags: His6-TwinStrep-SUMO cleaved; N-terminal SNAP kept (SNAP-Surface 488); label: 3' end held by stalled T7 RNA polymerase.
B1 yielded a Kd of 18.8 ± 1.5 nM. Turning to B2, the Kd worked out at 64 ± 15 nM. The molecule B3 came in with a Kd of 79 ± 25 nM. The figure for B4 is 38 ± 4 nM. B5 registered a Kd of 25.1 ± 3.45 nM. The molecule B6 gave a Kd of 85.5 ± 18.5 nM. B7: binding was put at a Kd of 11.1 ± 0.85 nM. On to B8, for which the Kd worked out at 9.85 ± 0.85 nM.

In the case of B9, binding was put at a Kd of 23.8 ± 2.65 nM.

With B10, the Kd is 20.4 ± 2.25 nM. Molecule B11 registered a Kd of 48.5 ± 9 nM. The figure for B12 is 55.5 ± 4.5 nM. The same measure for B13: 78 ± 11.5 nM. The figure for B14 is 106 ± 42 nM; for B15 it is 79 ± 15.5 nM.

B16: the Kd came to 44.5 ± 9.5 nM. In turn, B17 had a Kd of 110 ± 38.5 nM. In the case of B18, the Kd worked out at 71 ± 33.5 nM. B19 displayed a Kd of 71 ± 26 nM.

On to B20, for which the Kd was determined as 34.4 ± 3.25 nM. On to B21, for which binding was put at a Kd of 77.5 ± 17.5 nM. With B22, binding was characterised by a dissociation constant (Kd) of 96 ± 21.5 nM. The molecule B23 gave a Kd of 35 ± 9 nM. The figure for B24 is 76.5 ± 24.5 nM. As for B25, the Kd came to 67.5 ± 8 nM. For B26, the Kd was found to be 42 ± 5 nM. The figure for B27 is 98.5 ± 19.5 nM; for B28 it is 100 ± 20.5 nM; for B29 it is around 102 nM. As for B30, the Kd is 84 ± 25.5 nM. As to B31, the Kd was found to be 57.5 ± 10 nM.
